# According to patent publication US6962971B2, “Chemokines and methods for inducing the differentiation of fibroblasts to myofibroblasts” (The Regents of the University of California, priority 2001, dated 2005):
# Entries after “also recorded” stand apart in the source; their conditions may differ.
# Tests used:
# [1] = system: α-SMA; experiment: Immunoblotting for α-SMA in fibroblast extracts; assay type: cell-based, chicken; conditions: 750 ng/ml; versus untreated or C-peptide treated cells
# Method: Plates of fibroblasts were treated as described previously, with 750 ng/ml cCAF or 2.5 ng/ml TGFβ. To block TGFβ, or cCAF activity, anti-cCAF (3 μl) or anti-TGFβ (1 μl) antibody was pre-incubated in 1 ml media for 1 hr at room temperature before being added to cells. After 4 days of treatment, protein extracts were prepared in 1 ml 150 mM RIPA buffer containing protease inhibitors. Protein concentrations were determined using the DC protein assay kit and samples were adjusted to contain equal amounts of protein. SDS-PAGE was performed on 7.5% separating Doucet gels (Doucet and Trifaro, 1988). Protein transfer to nitrocellulose was performed using a wet-transfer apparatus (Bio-Rad) at 100V for 45 min. The membranes were blocked for 1 hr in 5% milk in TTBS and then incubated overnight at 4° C. in mouse anti-α-SMA, to a final IgG concentration of 5 μg/ml, in 1% milk in TTBS. The membranes were washed 3 times for 20 min each with TTBS, incubated in anti-mouse HRP at 1:10,000 in 1% milk for 1hr and washed as above, and the bands visualized using the ECL.
# [2] = system: CEFs; experiment: Trypan blue staining for necrotic cells; assay type: cell-based; conditions: cCAF-treated fibroblasts
# Method: The supernatant of treated and untreated CEFs was collected, the cells centrifuged to a pellet and resuspended in a small volume of medium. 1% trypan blue was added to a final concentration of 0.5% trypan blue. Cells were stained for 5min and then counted in a hemocytometer. Necrotic cells stained blue.
# [3] = system: fibroblast-seeded collagen gels; experiment: Collagen gel contraction by fibroblasts; assay type: cell-based, chicken
# Method: 1.5 ml Vitrogen 100 collagen gels were made in 35 mm plates. Secondary fibroblasts were plated at 0.4×10^6 cells/35 mm plate on top of the gels. After the cells had adhered to the collagen, cCAF was added to experimental plates. The medium was replaced approximately every 16 hr with 1 ml of 199 supplemented with 0.3% tryptose phosphate broth and 2% donor calf serum, and 750 ng cCAF [68 nM] or N-peptide [480 nM] was added to the experimental plates. Control plates contained media only. After 4 days, gels were released. Treatment was continued for 2 more days and gels were photographed every 12 hours. The photographs were used for evaluation of gel contraction by determining the area of the gel using NIH image analysis.
# [4] = system: Full-thickness excision wounds on the underside of the wings of 2-week-old chicks; experiment: Wounding experiment: closure of excision wounds; assay type: in vivo, chicken; conditions: 1 μg every other day
# Method: Full-thickness excision wounds (approximately 0.5×0.5 cm) were made, using a scalpel blade, on the underside of the wings of 2-week-old chicks. The left wing was treated with vehicle alone (water), and the right wing with […] cCAF [90 nM]. The wounds were photographed immediately after wounding and then covered with Biocclusive bandage. 50 μl vehicle (water) or cCAF was deposited through the bandage onto the wound using a 30-gauge needle. This procedure was repeated the next day and every other day thereafter. On days 3, 5 and 7, the bandages were removed and the wounds were photographed before replacing the bandages and applying the treatment again.
molecule,measurement,setting,value
"cCAF: CXC chemokine chicken Chemotactic and Angiogenic Factor, full-length, SEQ ID NO:2; purified or synthesized (protein, Gallusgallus, purified or synthesized) LSQGRTLVKMGNELRCQCISTHSKFIHPKSIQDVKLTPSGPHCKNVEIIATLKDGREVCLDPTAPWVQLIVKALMAKAQLNSDAPL",α-SMA levels by immunoblot,[1],much higher levels of α-SMA; also recorded: increased levels of α-SMA
same,necrotic cell death,[2],does not stimulate cell necrosis; also recorded: does not cause cells to undergo necrosis
same,contraction of collagen gels after release,"[3]; 750 ng/ml, 4-5 days treatment before release, versus untreated cells",much greater contraction; also recorded: stimulated fibroblasts to contract collagen gels more efficiently than untreated cells; also recorded: contracted the gels more tightly than did untreated cells
same,contraction of fibroblast clusters on collagen,[3]; versus control cells,form clusters that are much tighter and generally pull away from the collagen; also recorded: more contracted than clusters in control cells
same,wound closure at day 3 (days 0-3),"[4]; topical, versus vehicle (H2O) on contralateral wing",closed to a significantly greater degree than the vehicle-treated wounds
same,wound closure at day 5,[4]; versus vehicle,closure of the control wounds was still less than that of the experimental wounds
same,wound closure at day 7,[4]; versus vehicle,completely closed
